# Reference: the nanobody polyreactivity screen of Harvey et al. (2022)
# Test: yeast display, Sf9 membrane polyspecificity reagent, FACS + sequencing; frameworks hold sequencing errors
# Method in brief: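 After 36–48 hours of galactose induction, yeast (Saccharomyces cerevisiae BJ5465) displaying a synthetic nanobody library were stained at 4 °C for 1 hour with 10% biotinylated, detergent-solubilized Sf9 membrane reagent. Streptavidin microbeads enriched the stained cells before FACS sorting into low and high (top ~1%) gates on anti-HA and streptavidin fluorescence. Each clone's polyreactivity label reflects its gate of origin.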
row,Sequence,polyreactivity (PSR sort gate)
1,QVQLVESGGGLVQAGGSLRLSCAASGSIFNSYAMGWYRQAPGKERELVAAIRWSGGRTYYADSVKGRFTISRDNAKNTVYLQMNSLKPEDTAVYYCNVVSPGRVNYWGQGTQVTVSS,high polyreactivity
2,QVQLVESGGGLVQAGGSLRLSCAASGSIFNSYAMGWYRQAPGKERELVAAISRSGGRTYYADSVKGRFTISRDNAKNTVYLQMNSLKPEDTAVYYCAADAGSYLSYKAWARKMYYLGQGTQVTVSS,high polyreactivity
3,QVQLVESGGGLVQAGGSLRLSCAASGSIFNVYAMGWYRQAPGKERELVAAISSSGARTYYADSVKGRFTISRDNAKNTVYLQMNSLKPEDTAVYYCAARSILIRSGGGYPSVWRNYWGQGTQVTVSS,high polyreactivity
4,QVQLVESGGGLVQAGGSLRLSCAASGSIFNVYVMGWYRQAPGKERELVAAITWSGGTTYYADSVKGRFTISRDNAKNTVYLQMNSLKPEDTAVYYCAAEVWYFYDGYDYWGQGTQVTVSS,high polyreactivity
5,QVQLVESGGGLVQAGGSLRLSCAASGSIFNWYAMGWYRQAPGNERELVADISWSDGDTYYADSVKGRFSISRDNAKNTDYLQMNSLKPEDTAVYYSAAASNLYYPYYVLGDPYDYWGQGTQVTVSS,low polyreactivity
6,QVQLVESGGGLVQAGGSLRLSCAASGSIFNYNAMGWYRQAPGKERELVATINKRAGRTYYADSVKGRFTISRDNAKNTVYLQMNSLKPEDTAVYYCAALHSGRVQNFDYWGQGTQVTVSS,high polyreactivity
7,QVQLVESGGGLVQAGGSLRLSCAASGSIFNYNMGLYRQAPGKERELVAAVSTNYADSVKGRFTISRDNAKNTVYLQMNSLKPEDYAVYYCGVTPEKSGDEYDNWGQGTQVTVSS,low polyreactivity
8,QVQLVESGGGLVQAGGSLRLSCAASGSIFNYYAMGWYRQAPGKEREFVAAISWRGGSTYYADSVKGRFTISRDNAKNTVYLQMNRLKPEDTAVYYCNARVYGVYRRRVNYWGQGTQVTVSS,high polyreactivity
9,QVQLVESGGGLVQAGGSLRLSCAASGSIFNYYAMGWYRQAPGKERELVAGITTSGGSTYYADSVKGRFTISRDNAKNTVYLQMISLKPEDTAVYYCAAYDYISSTYFLDDYWGQGTQVSVSS,low polyreactivity
10,QVQLVESGGGLVQAGGSLRLSCAASGSIFPDYAMGWYRQAPGKERELVAAITWRDDSTYYADSVKGRFTISRDNAKNTVYLQMNSLKPEDTAVYYCNASALDPLYAKDDYWGQGTQVTVSS,low polyreactivity
11,QVQLVESGGGLVQAGGSLRLSCAASGSIFPENAMGWYRQAPGKERELVAAINRGGSTYYADSVKGRFTISRDNAKNTVYLQMNSLKPVDTAVYYCAAEYSGWGYIFNYWGQGTQVTVSS,low polyreactivity
12,QVQLVESGGGLVQAGGSLRLSCAASGSIFPGNAMRWYRQAPGKERELVATITWSGGSTYYADSVKGRFTISRDNAKNTVYLQINSLKPEDTAVYYCNADSNWYYQWNYYGLYDYWGQGTQVTVSS,low polyreactivity
13,QVQLVESGGGLVQAGGSLRLSCAASGSIFPGYAMGWYRQAPGKERELDATITWSGGSTYYADSVKGRFTISRDTAKNTVYLQMNSLKPEDTAVYYCNADSNWYYQWNYYGLYDYWGQGTQVTVSS,low polyreactivity
14,QVQLVESGGGLVQAGGSLRLSCAASGSIFPGYAMGWYRQAPGKERELVAGITWSDARTYYADSVKGRFTISRDNAKNTVYLQMNCLKPEDTAVYYCAADYYYYELDYWGKGTQVTVSS,low polyreactivity
15,QVQLVESGGGLVQAGGSLRLSCAASGSIFPGYAMGWYRQAPGKERELVATITYSDGSTYYADSVKGRFTISRDNAKNTVSLQMNSLKPEDTAVYYCNAASRGAGTSIWSWYDHWGQGTQVTVSS,low polyreactivity
16,QVQLVESGGGLVQAGGSLRLSCAASGSIFPGYTMGWYRQAPGKERELVAAITSSGGSTYYADSVKGRFTISRDNAKNTVYLQMNSLKPEDTAVYYCAADTTNYFDPFDYWGQGTQVTVSS,low polyreactivity
17,QVQLVESGGGLVQAGGSLRLSCAASGSIFPHNTMGWYRQAPGKERELVAAITRDGTSTYYADSVKGRFTISRDNAKNTVYLQMNSLKPEDTAVYYCAARRARSFYVTYYGVGFNYWGQGTQVTVSS,low polyreactivity
18,QVQLVESGGGLVQAGGSLRLSCAASGSIFPHYAMGWYRQAHGKERELVAAMSYSGGRTYYADSVKGRFTISRDNAKNTVYLQMNSLKPEDTAVYYCAKPERVLYHGDYWGQGTQVTVSS,low polyreactivity
19,QVQLVESGGGLVQAGGSLRLSCAASGSIFPHYAMGWYRQAPGKERELVAAISRGGSTNYADSVKGRFTISRDNAKNTVYLQMNSLKPEDTAVYYCAAQGNRYANDYWGQGTQVTVSS,high polyreactivity
20,QVQLVESGGGLVQAGGSLRLSCAASGSIFPINAMGWYRQAPGKERELVAVITSGGGGTYYADSVKGRFTISRDNAKNTVYLQMNSLKPEDSAVYYCAKRLSRKWQKFGYWGQGSQVTVSS,low polyreactivity

row,Sequence,polyreactivity (PSR sort gate)
1,QVQLVESGGGLVQAGGSLRLSCAASGSIFPKYAMGWYRQAPGKERELVAAITSSGGRTYYADSVKGRFSISRDNAKNTVYLQMNSLKPEDTAVYYCAARYRREAAYGFDYWGQGTQVTVSS,high polyreactivity
2,QVQLVESGGGLVQAGGSLRLSCAASGSIFPKYAMGWYRQAPGKERELVATISYRGGRTYYADSVKGRFTISRDNAKNTVYLQMNSLKPEDTAVYYCAGADYGSYPTYGYFEYYYWGQGTQVTVSS,low polyreactivity
3,QVQLVESGGGLVQAGGSLRLSCAASGSIFPLSAMGWYRQAPGKERELVAAITWRGGSTYYADSVKGRFTISRDNAKNTVYLQMNSLKPEDTAVYYCNRDLVPRFDYWGQGTQVTVSS,low polyreactivity
4,QVQLVESGGGLVQAGGSLRLSCAASGSIFPLYGMGWYRQAPGKERELVGAISIGGRTNYADSVKGRFTISRDNAKNTVYLQMNSLKPEDTAVYYCNAVSKFVYRNRILWYDYWGQGTQVTVSS,high polyreactivity
5,QVQLVESGGGLVQAGGSLRLSCAASGSIFPPYAMGWYRQAPGKERELVAAIDWGGSSTYYADSVKGRFTISRDNAKNTVYLQMNSLKPEDTAVYYCAAEVVHGYYLYEYWGQGTQVTVSS,high polyreactivity
6,QVQLVESGGGLVQAGGSLRLSCAASGSIFPRNAMGWYRQAPGKERELVARINSGGTTKYADSVKGRFTISRDNAKNTVYLQMNSLKPEDTAVYYCNADTYILDPLRKSYGYDYWGQGTQVTVSS,low polyreactivity
7,QVQLVESGGGLVQAGGSLRLSCAASGSIFPRYAMGWYRQAPGKERELVAAITGSGSSTYYADSVKGRFTISRDNAKNTVYLQMNSLKPEDTAVYYCAARKARPPFPHPFDYYWGQGTQVTVSS,low polyreactivity
8,QVQLVESGGGLVQAGGSLRLSCAASGSIFPSYGMGWYRQAPGKERELVARITSGGGTNYADSVKGRFTISRDNAKNTVYLQMNSLKPEDTAVYYFNKAFRGSQGHRGHYRYGYWGQGTQVTVSS,high polyreactivity
9,QVQLVESGGGLVQAGGSLRLSCAASGSIFPTNAMGWYRQAPGKERELVAAISSRDGSTYYADSVKGRFTISRDNAKNTVYLQMNSLKPEDTAVYYCNTDHDPIYFYITRHDSWGQGTQVTVSS,low polyreactivity
10,QVQLVESGGGLVQAGGSLRLSCAASGSIFPTYAMGWYRQAPGKEWELVAAIRGDGSTNYADSVKGRFTISRDNAKNTVYLQMNSLKPEDTAVSYCAAVSSEYVFRYGGYWGQGTQVTVSS,low polyreactivity
11,QVQLVESGGGLVQAGGSLRLSCAASGSIFPVNAMGLYRQAPGKERELVAAINTSSGSTYYADSVKGRFTISRDNAKNTVYLQMNSLKPEDTAVYYCAAVYVASGYRYGYWGQGTQVTVSS,high polyreactivity
12,QVQLVESGGGLVQAGGSLRLSCAASGSIFPVNVMGWYRQEPGKERELVARITSGGSTIYADSVKGRFTISRDNAKNTVYLQMNSLKPEDTAVYYCAARQYHWYLPSYWYRYDYWGQGTQVTVSS,high polyreactivity
13,QVQLVESGGGLVQAGGSLRLSCAASGSIFPWNAMGWYRQAPGKERELVAAISFSSGGSTYYADSVKGRFTISRDNAKNTVYLQMNSLKPEDPAVYYCAARTKLWVLGNYYYWGQGTQVTVSS,high polyreactivity
14,QVQLVESGGGLVQAGGSLRLSCAASGSIFPWYTMGWYRQAPGKEREFVAAISWSGGSTYYADSVKGRFTISRDNAKNTDYLQMNSLKPEETAVYYCAASRRPWYRAVTWNAGDYWGQGTQVTVSS,high polyreactivity
15,QVQLVESGGGLVQAGGSLRLSCAASGSIFPYNAMGWYRQAPGKERELVAAITTSGTSTYYADSVKGRFTISRDNAKNTVYLQMNSLKPEDTAVYYCAATSRGAISKARFYYWGQGTQVTVSS,high polyreactivity
16,QVQLVESGGGLVQAGGSLRLSCAASGSIFPYNAMGWYRQAPGKERELVATISSGGSTNYADSVKGRFTISRDNAKNTVYLHMNSLKPEDTAVYYCAADVIVFYYAPNYWGDIGYGYWGQGTQVTVSS,low polyreactivity
17,QVQLVESGGGLVQAGGSLRLSCAASGSIFPYYAMGWYRPAPGTERELVAAISRGGGTTYYADSVKGRFTISRDNAKNTVYLQMNSLKPEDTAVYYCAARQWRISTPYDYWGQGTQVTVSS,high polyreactivity
18,QVQLVESGGGLVQAGGSLRLSCAASGSIFPYYAMGWYRQAPGKERELVAAINWIGGSTYYADSVKGRFTISRDNAKNTVYLQMNSLKPEDTAVYYCAVDYYSYYYEYDYWGQGTQVTVSS,high polyreactivity
19,QVQLVESGGGLVQAGGSLRLSCAASGSIFPYYAMGWYRQAPGKERELVAAITGAGSTNYADSVKGRFTISRDNAKNTVYLQMNSLKPEDTAVYYCAADFGSPDKWRDWYDYWGQGTQVTVSS,low polyreactivity
20,QVQLVESGGGLVQAGGSLRLSCAASGSIFPYYAMGWYRQAPGKERELVAAITYIGGDTYYADSVKGRFTISRDNAKNTVYLQMNSLKPEDTAVYYCAAELSWRQYDYEYWGQGTQVTVSS,low polyreactivity
